Reference: patent publication US20160272693A1 (ZEALAND PHARMA A S, published 2016)
*1 amine or outer side, *2 acyl side, *3 side chain or, on linkers, in order; H or OH if unused. Bridges are numbered along the chain shown (N, C = ends). [ ]: non-standard residue; d: D form. The star is where a group is joined. C20 diacid = O=C(O)CCCCCCCCCCCCCCCCCCC(=O)*; γGlu = O=C(O)[C@H](CCC(=O)[*:2])N[*:1]; Hyp = O=C(O)[C@@H]1C[C@@H](O)CN1; NMeI = CC[C@H](C)[C@H](NC)C(=O)O; Sar = CNCC(=O)O

T1: human amylin receptor 3 (hAMYR3), hCTR2 co-expressed with human receptor activity modifying protein 3 (hRAMP3) (human, UniProt P30988 25-474; O60896 24-148)
T1 sequence (looked up) 1: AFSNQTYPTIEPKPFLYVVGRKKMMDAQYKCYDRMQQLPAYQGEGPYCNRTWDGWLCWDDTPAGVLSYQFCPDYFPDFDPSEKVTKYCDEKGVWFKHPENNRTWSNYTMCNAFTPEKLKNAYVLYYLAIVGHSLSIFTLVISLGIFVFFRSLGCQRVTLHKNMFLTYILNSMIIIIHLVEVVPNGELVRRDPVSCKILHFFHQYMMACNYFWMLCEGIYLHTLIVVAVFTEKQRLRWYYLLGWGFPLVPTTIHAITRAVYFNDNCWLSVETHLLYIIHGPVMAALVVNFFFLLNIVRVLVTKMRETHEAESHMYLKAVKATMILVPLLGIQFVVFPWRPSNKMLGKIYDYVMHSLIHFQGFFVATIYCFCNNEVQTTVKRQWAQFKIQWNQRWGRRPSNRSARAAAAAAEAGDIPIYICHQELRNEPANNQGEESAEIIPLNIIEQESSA
T1 sequence (looked up) 2: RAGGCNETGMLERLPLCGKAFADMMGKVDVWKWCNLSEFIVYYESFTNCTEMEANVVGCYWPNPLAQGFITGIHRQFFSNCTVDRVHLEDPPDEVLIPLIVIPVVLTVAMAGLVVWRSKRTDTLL

B1: [19CD]-isoGlu-R-C( )-GTAT-C( )-ATERLAHFLKRSSF-Gly(Me)-A-Ile(Me)-LSSTEVGSNT-Hyp-NH2 (Compd. 19) (peptide)
peptide: {C20 diacid}-[γGlu]RCGTATCATERLAHFLKRSSF[Sar]A[NMeI]LSSTEVGSNT[Hyp]-NH2
modifications: disulfide 3-8
SMILES: CC[C@H](C)[C@@H](C(=O)N[C@@H](CC(C)C)C(=O)N[C@@H](CO)C(=O)N[C@@H](CO)C(=O)N[C@H](C(=O)N[C@@H](CCC(=O)O)C(=O)N[C@H](C(=O)NCC(=O)N[C@@H](CO)C(=O)N[C@@H](CC(N)=O)C(=O)N[C@H](C(=O)N1C[C@H](O)C[C@H]1C(N)=O)[C@@H](C)O)C(C)C)[C@@H](C)O)N(C)C(=O)[C@H](C)NC(=O)CN(C)C(=O)[C@H](Cc1ccccc1)NC(=O)[C@H](CO)NC(=O)[C@H](CO)NC(=O)[C@H](CCCNC(=N)N)NC(=O)[C@H](CCCCN)NC(=O)[C@H](CC(C)C)NC(=O)[C@H](Cc1ccccc1)NC(=O)[C@H](Cc1c[nH]cn1)NC(=O)[C@H](C)NC(=O)[C@H](CC(C)C)NC(=O)[C@H](CCCNC(=N)N)NC(=O)[C@H](CCC(=O)O)NC(=O)[C@@H](NC(=O)[C@H](C)NC(=O)[C@@H]1CSSC[C@H](NC(=O)[C@H](CCCNC(=N)N)NC(=O)CC[C@H](NC(=O)CCCCCCCCCCCCCCCCCCC(=O)O)C(=O)O)C(=O)NCC(=O)N[C@@H]([C@@H](C)O)C(=O)N[C@@H](C)C(=O)N[C@@H]([C@@H](C)O)C(=O)N1)[C@@H](C)O
B2: [19CD]-isoGlu-R-C( )-GTAT-C( )-ATERLAHFLTRSSF-Gly(Me)-A-Ile(Me)-LSSTEVGSNT-Hyp-NH2 (Compd. 18) (peptide)
peptide: {C20 diacid}-[γGlu]RCGTATCATERLAHFLTRSSF[Sar]A[NMeI]LSSTEVGSNT[Hyp]-NH2
modifications: disulfide 3-8
SMILES: CC[C@H](C)[C@@H](C(=O)N[C@@H](CC(C)C)C(=O)N[C@@H](CO)C(=O)N[C@@H](CO)C(=O)N[C@H](C(=O)N[C@@H](CCC(=O)O)C(=O)N[C@H](C(=O)NCC(=O)N[C@@H](CO)C(=O)N[C@@H](CC(N)=O)C(=O)N[C@H](C(=O)N1C[C@H](O)C[C@H]1C(N)=O)[C@@H](C)O)C(C)C)[C@@H](C)O)N(C)C(=O)[C@H](C)NC(=O)CN(C)C(=O)[C@H](Cc1ccccc1)NC(=O)[C@H](CO)NC(=O)[C@H](CO)NC(=O)[C@H](CCCNC(=N)N)NC(=O)[C@@H](NC(=O)[C@H](CC(C)C)NC(=O)[C@H](Cc1ccccc1)NC(=O)[C@H](Cc1c[nH]cn1)NC(=O)[C@H](C)NC(=O)[C@H](CC(C)C)NC(=O)[C@H](CCCNC(=N)N)NC(=O)[C@H](CCC(=O)O)NC(=O)[C@@H](NC(=O)[C@H](C)NC(=O)[C@@H]1CSSC[C@H](NC(=O)[C@H](CCCNC(=N)N)NC(=O)CC[C@H](NC(=O)CCCCCCCCCCCCCCCCCCC(=O)O)C(=O)O)C(=O)NCC(=O)N[C@@H]([C@@H](C)O)C(=O)N[C@@H](C)C(=O)N[C@@H]([C@@H](C)O)C(=O)N1)[C@@H](C)O)[C@@H](C)O
B3: [19CD]-isoGlu-R-C( )-NTAT-C( )-ATQRLAHFLHRF-Gly(Me)-A-Ile(Me)-LSSTEVGSETP-NH2 (Compd. 14) (peptide)
peptide: {C20 diacid-γGlu}-RCNTATCATQRLAHFLHRF[Sar]A[NMeI]LSSTEVGSETP-NH2
modifications: disulfide 2-7
SMILES: CC[C@H](C)[C@@H](C(=O)N[C@@H](CC(C)C)C(=O)N[C@@H](CO)C(=O)N[C@@H](CO)C(=O)N[C@H](C(=O)N[C@@H](CCC(=O)O)C(=O)N[C@H](C(=O)NCC(=O)N[C@@H](CO)C(=O)N[C@@H](CCC(=O)O)C(=O)N[C@H](C(=O)N1CCC[C@H]1C(N)=O)[C@@H](C)O)C(C)C)[C@@H](C)O)N(C)C(=O)[C@H](C)NC(=O)CN(C)C(=O)[C@H](Cc1ccccc1)NC(=O)[C@H](CCCNC(=N)N)NC(=O)[C@H](Cc1c[nH]cn1)NC(=O)[C@H](CC(C)C)NC(=O)[C@H](Cc1ccccc1)NC(=O)[C@H](Cc1c[nH]cn1)NC(=O)[C@H](C)NC(=O)[C@H](CC(C)C)NC(=O)[C@H](CCCNC(=N)N)NC(=O)[C@H](CCC(N)=O)NC(=O)[C@@H](NC(=O)[C@H](C)NC(=O)[C@@H]1CSSC[C@H](NC(=O)[C@H](CCCNC(=N)N)NC(=O)CC[C@H](NC(=O)CCCCCCCCCCCCCCCCCCC(=O)O)C(=O)O)C(=O)N[C@@H](CC(N)=O)C(=O)N[C@@H]([C@@H](C)O)C(=O)N[C@@H](C)C(=O)N[C@@H]([C@@H](C)O)C(=O)N1)[C@@H](C)O
B4: [19CD]-isoGlu-R-C( )-GTAT-C( )-ATERLAHFLHRSSF-Gly(Me)-A-Ile(Me)-LSSTEVGSNTP-NH2 (Compd. 15) (peptide)
peptide: {C20 diacid}-[γGlu]RCGTATCATERLAHFLHRSSF[Sar]A[NMeI]LSSTEVGSNTP-NH2
modifications: disulfide 3-8
SMILES: CC[C@H](C)[C@@H](C(=O)N[C@@H](CC(C)C)C(=O)N[C@@H](CO)C(=O)N[C@@H](CO)C(=O)N[C@H](C(=O)N[C@@H](CCC(=O)O)C(=O)N[C@H](C(=O)NCC(=O)N[C@@H](CO)C(=O)N[C@@H](CC(N)=O)C(=O)N[C@H](C(=O)N1CCC[C@H]1C(N)=O)[C@@H](C)O)C(C)C)[C@@H](C)O)N(C)C(=O)[C@H](C)NC(=O)CN(C)C(=O)[C@H](Cc1ccccc1)NC(=O)[C@H](CO)NC(=O)[C@H](CO)NC(=O)[C@H](CCCNC(=N)N)NC(=O)[C@H](Cc1c[nH]cn1)NC(=O)[C@H](CC(C)C)NC(=O)[C@H](Cc1ccccc1)NC(=O)[C@H](Cc1c[nH]cn1)NC(=O)[C@H](C)NC(=O)[C@H](CC(C)C)NC(=O)[C@H](CCCNC(=N)N)NC(=O)[C@H](CCC(=O)O)NC(=O)[C@@H](NC(=O)[C@H](C)NC(=O)[C@@H]1CSSC[C@H](NC(=O)[C@H](CCCNC(=N)N)NC(=O)CC[C@H](NC(=O)CCCCCCCCCCCCCCCCCCC(=O)O)C(=O)O)C(=O)NCC(=O)N[C@@H]([C@@H](C)O)C(=O)N[C@@H](C)C(=O)N[C@@H]([C@@H](C)O)C(=O)N1)[C@@H](C)O
B5: [19CD]-isoGlu-R-C( )-NTAT-C( )-ATQRLAHFLHRSSF-Gly(Me)-A-Ile(Me)-LSSTEVGSNTP-NH2 (Compd. 16) (peptide)
peptide: {C20 diacid-γGlu}-RCNTATCATQRLAHFLHRSSF[Sar]A[NMeI]LSSTEVGSNTP-NH2
modifications: disulfide 2-7
B6: [19CD]-isoGlu-R-C( )-GTAT-C( )-ATERLANFLVRSSF-Gly(Me)-A-Ile(Me)-LSSTEVGSNT-Hyp-NH2 (Compd. 17) (peptide)
peptide: {C20 diacid-γGlu}-RCGTATCATERLANFLVRSSF[Sar]A[NMeI]LSSTEVGSNT[Hyp]-NH2
modifications: disulfide 2-7
SMILES: CC[C@H](C)[C@@H](C(=O)N[C@@H](CC(C)C)C(=O)N[C@@H](CO)C(=O)N[C@@H](CO)C(=O)N[C@H](C(=O)N[C@@H](CCC(=O)O)C(=O)N[C@H](C(=O)NCC(=O)N[C@@H](CO)C(=O)N[C@@H](CC(N)=O)C(=O)N[C@H](C(=O)N1C[C@H](O)C[C@H]1C(N)=O)[C@@H](C)O)C(C)C)[C@@H](C)O)N(C)C(=O)[C@H](C)NC(=O)CN(C)C(=O)[C@H](Cc1ccccc1)NC(=O)[C@H](CO)NC(=O)[C@H](CO)NC(=O)[C@H](CCCNC(=N)N)NC(=O)[C@@H](NC(=O)[C@H](CC(C)C)NC(=O)[C@H](Cc1ccccc1)NC(=O)[C@H](CC(N)=O)NC(=O)[C@H](C)NC(=O)[C@H](CC(C)C)NC(=O)[C@H](CCCNC(=N)N)NC(=O)[C@H](CCC(=O)O)NC(=O)[C@@H](NC(=O)[C@H](C)NC(=O)[C@@H]1CSSC[C@H](NC(=O)[C@H](CCCNC(=N)N)NC(=O)CC[C@H](NC(=O)CCCCCCCCCCCCCCCCCCC(=O)O)C(=O)O)C(=O)NCC(=O)N[C@@H]([C@@H](C)O)C(=O)N[C@@H](C)C(=O)N[C@@H]([C@@H](C)O)C(=O)N1)[C@@H](C)O)C(C)C
B7: [19CD]-isoGlu-R-C( )-NTAT-C( )-ATQRLAHFLHRSSF-Gly(Me)-A-Ile(Me)-LSSTEVGSETP-NH2 (Compd. 2) (peptide)
peptide: {C20 diacid-γGlu}-RCNTATCATQRLAHFLHRSSF[Sar]A[NMeI]LSSTEVGSETP-NH2
modifications: disulfide 2-7
B8: [19CD]-isoGlu-R-C( )-GTAT-C( )-ATERLAHFLTRSSF-Gly(Me)-A-Ile(Me)-LSSTEVGSGT-Hyp-NH2 (Compd. 13) (peptide)
peptide: {C20 diacid}-[γGlu]RCGTATCATERLAHFLTRSSF[Sar]A[NMeI]LSSTEVGSGT[Hyp]-NH2
modifications: disulfide 3-8
SMILES: CC[C@H](C)[C@@H](C(=O)N[C@@H](CC(C)C)C(=O)N[C@@H](CO)C(=O)N[C@@H](CO)C(=O)N[C@H](C(=O)N[C@@H](CCC(=O)O)C(=O)N[C@H](C(=O)NCC(=O)N[C@@H](CO)C(=O)NCC(=O)N[C@H](C(=O)N1C[C@H](O)C[C@H]1C(N)=O)[C@@H](C)O)C(C)C)[C@@H](C)O)N(C)C(=O)[C@H](C)NC(=O)CN(C)C(=O)[C@H](Cc1ccccc1)NC(=O)[C@H](CO)NC(=O)[C@H](CO)NC(=O)[C@H](CCCNC(=N)N)NC(=O)[C@@H](NC(=O)[C@H](CC(C)C)NC(=O)[C@H](Cc1ccccc1)NC(=O)[C@H](Cc1c[nH]cn1)NC(=O)[C@H](C)NC(=O)[C@H](CC(C)C)NC(=O)[C@H](CCCNC(=N)N)NC(=O)[C@H](CCC(=O)O)NC(=O)[C@@H](NC(=O)[C@H](C)NC(=O)[C@@H]1CSSC[C@H](NC(=O)[C@H](CCCNC(=N)N)NC(=O)CC[C@H](NC(=O)CCCCCCCCCCCCCCCCCCC(=O)O)C(=O)O)C(=O)NCC(=O)N[C@@H]([C@@H](C)O)C(=O)N[C@@H](C)C(=O)N[C@@H]([C@@H](C)O)C(=O)N1)[C@@H](C)O)[C@@H](C)O

Molecular target: T1, human amylin receptor 3 (hAMYR3), hCTR2 …
Assay: cell-based or functional assay

Row | hAMYR3 EC50 (nM); cAMP induction | Binder
1 | 0.28 nM | B1
2 | 0.41 nM | B2
3 | 0.26 nM | B3
4 | 0.079 nM | B4
5 | 0.11 nM | B5
6 | 0.61 nM | B6
7 | 0.12 nM | B7
8 | 0.38 nM | B8
